Measurements taken from the supplement of paper PMC9112550, “Optimization of the antimicrobial peptide Bac7 by deep mutational scanning” (BMC Biology, 2022).

These sequences were tested on Escherichia coli TOP10 (assay: shrunken log2 fold change of peptide-encoding DNA abundance (4.5 h post-induction vs induction); higher = less antimicrobial activity (less host growth inhibition)). Settings: time post-induction: 4.5 h; library: site-saturation at positions 5, 18, 19, 20.
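Further: peptides expressed intracellularly from a pBAD plasmid library in pooled LB shake-flask culture, induced with 0.3% L-arabinose, DNA abundance read by NGS, three biological replicates, DESeq2 with apeglm shrinkage.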

Row | Sequence | shrunken log2 fold change
1 | RRIRDRPPRLPRPRPRPYMKPRP | -0.152
2 | RRIRDRPPRLPRPRPRPYMPPRP | -0.517
3 | RRIRDRPPRLPRPRPRPYNMPRP | -0.0758
4 | RRIRDRPPRLPRPRPRPYPEPRP | 0.0271
5 | RRIRDRPPRLPRPRPRPYPYPRP | -0.0176
6 | RRIRDRPPRLPRPRPRPYQHPRP | -0.221
7 | RRIRDRPPRLPRPRPRPYQMPRP | -0.796
8 | RRIRDRPPRLPRPRPRPYVDPRP | -0.0902
9 | RRIRDRPPRLPRPRPRPYVVPRP | -0.159
10 | RRIRDRPPRLPRPRPRPYYCPRP | 0.0391
11 | RRIRDRPPRLPRPRPRPYYEPRP | -0.226
12 | RRIRERPPRLPRPRPRPAAVPRP | 0.057
13 | RRIRERPPRLPRPRPRPACCPRP | 0.0931
14 | RRIRERPPRLPRPRPRPACIPRP | -0.0281
15 | RRIRERPPRLPRPRPRPAENPRP | -0.27
16 | RRIRERPPRLPRPRPRPAEPPRP | -0.000777
17 | RRIRERPPRLPRPRPRPAFIPRP | -0.012
18 | RRIRERPPRLPRPRPRPAFVPRP | 0.121
19 | RRIRERPPRLPRPRPRPAGAPRP | 0.464
20 | RRIRERPPRLPRPRPRPAGGPRP | 0.2
21 | RRIRERPPRLPRPRPRPAKAPRP | 0.0877
22 | RRIRERPPRLPRPRPRPAKNPRP | -0.0998
23 | RRIRERPPRLPRPRPRPALHPRP | 0.247
24 | RRIRERPPRLPRPRPRPALWPRP | 0.241
25 | RRIRERPPRLPRPRPRPANNPRP | -0.598

Row | Sequence | shrunken log2 fold change
26 | RRIRERPPRLPRPRPRPANWPRP | 0.173
27 | RRIRERPPRLPRPRPRPAPRPRP | 0.734
28 | RRIRERPPRLPRPRPRPAPYPRP | -0.123
29 | RRIRERPPRLPRPRPRPAQCPRP | -0.0401
30 | RRIRERPPRLPRPRPRPAQHPRP | 0.124
31 | RRIRERPPRLPRPRPRPASTPRP | -0.527
32 | RRIRERPPRLPRPRPRPASWPRP | 0.0747
33 | RRIRERPPRLPRPRPRPATDPRP | -0.00755
34 | RRIRERPPRLPRPRPRPATQPRP | 0.00813
35 | RRIRERPPRLPRPRPRPAWSPRP | 0.233
36 | RRIRERPPRLPRPRPRPAWWPRP | 0.00222
37 | RRIRERPPRLPRPRPRPAYAPRP | 0.0657
38 | RRIRERPPRLPRPRPRPCAAPRP | -0.244
39 | RRIRERPPRLPRPRPRPCAWPRP | -0.0536
40 | RRIRERPPRLPRPRPRPCDAPRP | -0.171
41 | RRIRERPPRLPRPRPRPCDHPRP | -0.0479
42 | RRIRERPPRLPRPRPRPCFHPRP | -0.327
43 | RRIRERPPRLPRPRPRPCGIPRP | 0.00383
44 | RRIRERPPRLPRPRPRPCGLPRP | -0.0273
45 | RRIRERPPRLPRPRPRPCGNPRP | -0.00264
46 | RRIRERPPRLPRPRPRPCHEPRP | -0.0789
47 | RRIRERPPRLPRPRPRPCHGPRP | -0.989
48 | RRIRERPPRLPRPRPRPCIHPRP | -0.229
49 | RRIRERPPRLPRPRPRPCITPRP | -0.395
50 | RRIRERPPRLPRPRPRPCKPPRP | 0.0172

Row | Sequence | shrunken log2 fold change
51 | RRIRERPPRLPRPRPRPCKSPRP | -0.0225
52 | RRIRERPPRLPRPRPRPCLAPRP | -0.526
53 | RRIRERPPRLPRPRPRPCLWPRP | -0.0179
54 | RRIRERPPRLPRPRPRPCMDPRP | -0.151
55 | RRIRERPPRLPRPRPRPCMTPRP | -0.00173
56 | RRIRERPPRLPRPRPRPCNAPRP | -0.0483
57 | RRIRERPPRLPRPRPRPCNIPRP | -0.0405
58 | RRIRERPPRLPRPRPRPCNRPRP | -0.0134
59 | RRIRERPPRLPRPRPRPCPCPRP | -0.341
60 | RRIRERPPRLPRPRPRPCPTPRP | -0.204
61 | RRIRERPPRLPRPRPRPCSRPRP | -0.00322
62 | RRIRERPPRLPRPRPRPCSSPRP | 0.00543
63 | RRIRERPPRLPRPRPRPCSYPRP | -0.0141
64 | RRIRERPPRLPRPRPRPCTIPRP | -0.487
65 | RRIRERPPRLPRPRPRPCWDPRP | -0.00421
66 | RRIRERPPRLPRPRPRPDAQPRP | 0.154
67 | RRIRERPPRLPRPRPRPDCFPRP | 0.316
68 | RRIRERPPRLPRPRPRPDCNPRP | -0.395
69 | RRIRERPPRLPRPRPRPDDSPRP | -0.435
70 | RRIRERPPRLPRPRPRPDDTPRP | -0.0925
71 | RRIRERPPRLPRPRPRPDFHPRP | -0.498
72 | RRIRERPPRLPRPRPRPDFIPRP | -0.092
73 | RRIRERPPRLPRPRPRPDFNPRP | -0.175
74 | RRIRERPPRLPRPRPRPDFPPRP | 0.00147
75 | RRIRERPPRLPRPRPRPDFWPRP | 0.214

Row | Sequence | shrunken log2 fold change
76 | RRIRERPPRLPRPRPRPDHAPRP | -0.318
77 | RRIRERPPRLPRPRPRPDKAPRP | -0.0525
78 | RRIRERPPRLPRPRPRPDKTPRP | -0.0128
79 | RRIRERPPRLPRPRPRPDLAPRP | 0.27
80 | RRIRERPPRLPRPRPRPDLFPRP | 0.462
81 | RRIRERPPRLPRPRPRPDMNPRP | -0.00248
82 | RRIRERPPRLPRPRPRPDQIPRP | -0.084
83 | RRIRERPPRLPRPRPRPDQLPRP | -0.248
84 | RRIRERPPRLPRPRPRPDQYPRP | -0.0158
85 | RRIRERPPRLPRPRPRPDSGPRP | -0.533
86 | RRIRERPPRLPRPRPRPDSIPRP | -0.042
87 | RRIRERPPRLPRPRPRPDSKPRP | -0.312
88 | RRIRERPPRLPRPRPRPDTGPRP | -0.161
89 | RRIRERPPRLPRPRPRPDVLPRP | -0.138
90 | RRIRERPPRLPRPRPRPDVQPRP | -0.0408
91 | RRIRERPPRLPRPRPRPECIPRP | 0.248
92 | RRIRERPPRLPRPRPRPECNPRP | 0.0631
93 | RRIRERPPRLPRPRPRPECQPRP | -0.0134
94 | RRIRERPPRLPRPRPRPEDCPRP | -0.104
95 | RRIRERPPRLPRPRPRPEGIPRP | 0.0236
96 | RRIRERPPRLPRPRPRPEGMPRP | 0.046
97 | RRIRERPPRLPRPRPRPEHPPRP | -0.0878
98 | RRIRERPPRLPRPRPRPEHRPRP | -0.0185
99 | RRIRERPPRLPRPRPRPEIFPRP | -0.00264
100 | RRIRERPPRLPRPRPRPEIHPRP | -0.0198

Row | Sequence | shrunken log2 fold change
101 | RRIRERPPRLPRPRPRPEIWPRP | 0.417
102 | RRIRERPPRLPRPRPRPEKWPRP | -0.0225
103 | RRIRERPPRLPRPRPRPERDPRP | -0.0208
104 | RRIRERPPRLPRPRPRPESCPRP | -0.0125
105 | RRIRERPPRLPRPRPRPETDPRP | -0.0989
106 | RRIRERPPRLPRPRPRPETLPRP | -0.0176
107 | RRIRERPPRLPRPRPRPETTPRP | 0.165
108 | RRIRERPPRLPRPRPRPEVMPRP | 0.378
109 | RRIRERPPRLPRPRPRPEWYPRP | 0.0172
110 | RRIRERPPRLPRPRPRPEYKPRP | -0.471
111 | RRIRERPPRLPRPRPRPFCEPRP | -0.0162
112 | RRIRERPPRLPRPRPRPFDMPRP | -0.0448
113 | RRIRERPPRLPRPRPRPFGPPRP | -0.146
114 | RRIRERPPRLPRPRPRPFHAPRP | -0.0736
115 | RRIRERPPRLPRPRPRPFHKPRP | -0.355
116 | RRIRERPPRLPRPRPRPFIAPRP | -0.2
117 | RRIRERPPRLPRPRPRPFIWPRP | 0.0296
118 | RRIRERPPRLPRPRPRPFKPPRP | -0.22
119 | RRIRERPPRLPRPRPRPFKYPRP | -0.0322
120 | RRIRERPPRLPRPRPRPFLEPRP | -0.436
121 | RRIRERPPRLPRPRPRPFNAPRP | -0.328
122 | RRIRERPPRLPRPRPRPFNMPRP | -0.236
123 | RRIRERPPRLPRPRPRPFNQPRP | -0.279
124 | RRIRERPPRLPRPRPRPFPCPRP | -0.0816
125 | RRIRERPPRLPRPRPRPFQFPRP | -0.062

Row | Sequence | shrunken log2 fold change
126 | RRIRERPPRLPRPRPRPFRGPRP | -0.11
127 | RRIRERPPRLPRPRPRPFRPPRP | -0.179
128 | RRIRERPPRLPRPRPRPFSPPRP | -0.745
129 | RRIRERPPRLPRPRPRPFTHPRP | -0.0134
130 | RRIRERPPRLPRPRPRPFYFPRP | 0.935
131 | RRIRERPPRLPRPRPRPGAGPRP | 0.395
132 | RRIRERPPRLPRPRPRPGCGPRP | 0.307
133 | RRIRERPPRLPRPRPRPGCSPRP | -0.0673
134 | RRIRERPPRLPRPRPRPGDTPRP | -0.943
135 | RRIRERPPRLPRPRPRPGDVPRP | -0.159
136 | RRIRERPPRLPRPRPRPGENPRP | 0.00425
137 | RRIRERPPRLPRPRPRPGGCPRP | 1.44
138 | RRIRERPPRLPRPRPRPGGDPRP | 0.0586
139 | RRIRERPPRLPRPRPRPGGEPRP | 0.127
140 | RRIRERPPRLPRPRPRPGHKPRP | -0.324
141 | RRIRERPPRLPRPRPRPGHNPRP | -0.115
142 | RRIRERPPRLPRPRPRPGKYPRP | -0.17
143 | RRIRERPPRLPRPRPRPGLIPRP | 0.101
144 | RRIRERPPRLPRPRPRPGLNPRP | 0.127
145 | RRIRERPPRLPRPRPRPGMMPRP | -0.235
146 | RRIRERPPRLPRPRPRPGMSPRP | 0.0438
147 | RRIRERPPRLPRPRPRPGQCPRP | 0.0236
148 | RRIRERPPRLPRPRPRPGQMPRP | 0.0413
149 | RRIRERPPRLPRPRPRPGRLPRP | -0.263
150 | RRIRERPPRLPRPRPRPGRTPRP | 0.251
